Experimental data: the Human Domainome abundance scans (Beltran et al. 2025)

B1: Transcription factor SOX-11, residues 50 to 117; numbered along this chain, P35716 (parent)
chain: KRPMNAFMVWSKIERRKIMEQSPDMHNAEISKRLGKRWKMLKDSEKIPFIREAERLRLKHMADYPDYK
B2: Protein C-ets-1, residues 55 to 135; numbered along this chain, P14921 (parent)
chain: GFTKEQQRLGIPKDPRQWTETHVRDWVMWAVNEFSLKGVDFQKFCMNGAALCALGKDCFLELAPDFVGDILWEHLEILQKE

Variants of: B1
Test: abundance fitness (aPCA) (normalised: wild type 0, dead -1); higher = more abundant; growth selection in yeast, the domain comes from the species named
Details: Homo sapiens

Abundance fitness, by site and new letter:
I13: G -0.206 | K -0.717 | Q -0.06 | L -0.237 | N -0.372 | M -0.106 | C -0.407 | E -0.077 | P -0.646 | H -0.153 | F -0.263 | A -0.135
P3: Q 0.119 | T -0.083 | I -0.279 | L -0.118 | N 0.199 | A -0.544 | E 0.073 | C -0.442 | R -0.407 | D 0.525 | H -0.085 | M -0.704 | K -0.044 | V -0.294 | S 0.097 | F -0.292
S11: H -1.37 | D -1.11 | R -0.767 | T -0.602 | C -0.4 | Y -0.267 | F -0.471 | L -0.857 | N -0.399 | V -0.597 | P -0.599 | G -0.283 | I -1.19
V9: C -0.448 | I 0.037 | T -0.777 | N -0.734 | R -0.926 | Q -0.894 | M -0.61 | S -0.847 | W -0.411 | G -0.687 | L 0.177 | P -0.891 | D -0.671 | A -0.644 | F -0.63 | H -0.402 | Y -0.558
N5: M -0.724 | Q -0.831 | F -0.712 | P -0.544 | I -0.601 | A -0.474 | R -0.852 | G -0.433 | L -0.65 | T 0.149 | Y -0.524 | W -0.438 | K -0.956 | D 0.147 | H -0.621 | S 0.104 | C -0.321 | V -0.491 | E -0.172
M4: N -0.292 | W -0.251 | K -0.539 | L -0.188 | V 0.005 | E -0.004 | Q -0.248 | S -0.334 | H -0.423 | D 0.059 | T -0.145 | G -0.28 | C -0.787 | I 0.158 | Y -0.256 | F -0.186 | R -0.874
A6: Q -1.05 | P -0.524 | D -0.751 | R -0.776 | F -0.987 | S -0.531 | V -0.629 | E -0.338 | W -1.29 | G -0.03 | I -0.934 | M -0.831 | T -0.767 | L -0.666 | H -0.553 | Y -0.827 | C -0.634 | N -0.976
K12: T -0.119 | V 0.012 | Y -0.448 | S 0.074 | N 0.014 | M -0.043 | E 0.359 | Q 0.007 | I -0.099 | W -0.89 | A 0.175 | F -0.232 | H -0.006 | P -0.746 | G -0.2 | L -0.016 | C -0.131
R2: N 0.166 | T 0.282 | D 0.146 | F 0.091 | Y 0.272 | Q 0.037 | S 0.064 | A -0.178 | C 0.041 | K -0.041 | I 0.113 | H 0.086 | L 0.037 | V 0.118 | E -0.165 | W -0.97 | M 0.158 | G 0.03 | P -0.011
F7: K -0.887 | W -0.018 | N -0.795 | Q -0.476 | C -0.534 | E -0.689 | H -0.879 | A -0.75 | R -0.478 | P -0.967 | L -0.958 | D -0.848 | Y -0.203 | V -1.03 | G -0.765 | T -0.839 | I -0.795
M8: K -0.394 | W -0.446 | I -0.117 | C -0.168 | F -0.14 | E 0.299 | A 0.101 | R -0.239 | Y -0.089 | N -0.111 | T 0.165 | D 0.456 | Q 0.324 | P -0.609 | G -0.079 | L -0.039 | H -0.033 | V -0.131
K1: N 0.077 | M -0.421 | S -0.026 | W 0.006 | C -0.056 | Y 0.032 | F 0.113 | D 0.21 | I -0.048 | E 0.258 | L -0.137 | T 0.032 | G 0.103
W10: V -0.872 | K -0.627 | T -0.576 | I -0.961 | F -0.253 | A -0.543 | D -0.781 | S -0.913 | G -0.797 | M -0.345 | Q -1.09 | Y -0.375 | H -0.783 | L -0.819 | C -1.01 | N -0.594 | P -0.589

Variants of: B2
Test: as above
Details: Homo sapiens

Abundance fitness, by site and new letter:
Q79: H -0.178
E73: D 0.04 | T -0.19 | R -0.088 | M -0.277 | F -0.251 | L -0.246 | Q -0.032 | A -0.079 | G -0.08 | W -0.142 | K 0.004 | V -0.546 | C -0.252 | I -0.651 | Y -0.319 | H -0.315 | P -0.898
H74: R -0.222 | T -0.265 | Q -0.02 | K -0.273 | C -0.137 | G -0.346 | Y -0.454 | E -0.027 | L -0.198 | F -0.4 | S -0.08 | N -0.043 | P -0.794 | W -0.611 | M -0.271 | V -0.419 | D -0.214 | A -0.135
L75: W -0.097 | A -0.921 | S -0.796 | R -0.863 | D -0.91 | M -0.169 | K -0.466 | I -0.21 | T -1.02 | G -0.935 | C -0.964 | Y -0.62 | N -0.697 | E -0.952 | H -0.914 | V -0.721 | P -0.898
K80: N 0.029
I77: D -0.033 | N 0.17 | T 0.01 | R -0.025 | S 0.065 | V 0.029 | Q -0.029 | K 0.052 | L 0.053 | W -0.033 | M -0.009 | Y -0.043 | F -0.013 | G 0.027 | E -0.031 | A 0.008 | P -0.346 | H 0.076 | C -0.021
L78: K -0.649 | N -0.775 | E -0.5 | Y -0.463 | P -0.513 | R -0.583 | T -0.289 | D -0.486 | W -0.244 | H -0.553 | V -0.097 | S -0.508 | I -0.098 | M -0.116 | A -0.299 | Q -0.199 | F -0.39 | G -0.566 | C -0.16
E81: D -0.003
E76: Q -0.043 | R -0.072 | V -0.108 | N 0.057 | S -0.021 | G -0.036 | L -0.094 | A -0.043 | Y 0.029 | H -0.085 | P -0.205 | K -0.053 | I -0.267 | T -0.14 | D -0.015 | M 0.04 | W -0.109 | F -0.273 | C -0.092
W72: N -0.746 | M -0.389 | S -0.735 | P -1.15 | Y 0.11 | V -0.918 | Q -0.804 | T -1 | R -0.577
